Assay results reported in publication PMC4558366.

Tests used:
Experiment in all cases: ITC
[1] = biological target: T1, UHRF1_(SRA-RING) (residues 419-806) (human), Q96T88
T1 chain: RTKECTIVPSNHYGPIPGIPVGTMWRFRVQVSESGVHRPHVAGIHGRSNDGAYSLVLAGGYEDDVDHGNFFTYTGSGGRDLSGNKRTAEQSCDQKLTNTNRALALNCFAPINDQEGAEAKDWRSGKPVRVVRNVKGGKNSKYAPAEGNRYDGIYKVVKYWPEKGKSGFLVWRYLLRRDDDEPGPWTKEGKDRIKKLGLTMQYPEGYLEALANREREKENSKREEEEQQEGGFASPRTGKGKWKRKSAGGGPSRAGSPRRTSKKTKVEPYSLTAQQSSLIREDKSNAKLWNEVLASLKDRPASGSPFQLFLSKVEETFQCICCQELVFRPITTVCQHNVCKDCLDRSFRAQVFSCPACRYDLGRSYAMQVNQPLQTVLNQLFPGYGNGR

[2] = biological target: T2, UHRF1_(600-687) (human), Q96T88
T2 chain: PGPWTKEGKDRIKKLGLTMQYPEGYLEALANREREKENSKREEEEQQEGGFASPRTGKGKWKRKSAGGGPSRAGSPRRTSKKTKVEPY

[3] = biological target: T3, UHRF1_(647-678) (human), Q96T88
T3 chain: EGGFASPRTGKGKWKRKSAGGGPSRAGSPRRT

[4] = biological target: T4, UHRF1_(647-687) K659E (human), Q96T88
T4 chain: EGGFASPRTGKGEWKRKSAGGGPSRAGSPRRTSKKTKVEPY

[5] = biological target: T5, UHRF1_(TTD-RING) (residues 138-806) (human), Q96T88
T5 chain: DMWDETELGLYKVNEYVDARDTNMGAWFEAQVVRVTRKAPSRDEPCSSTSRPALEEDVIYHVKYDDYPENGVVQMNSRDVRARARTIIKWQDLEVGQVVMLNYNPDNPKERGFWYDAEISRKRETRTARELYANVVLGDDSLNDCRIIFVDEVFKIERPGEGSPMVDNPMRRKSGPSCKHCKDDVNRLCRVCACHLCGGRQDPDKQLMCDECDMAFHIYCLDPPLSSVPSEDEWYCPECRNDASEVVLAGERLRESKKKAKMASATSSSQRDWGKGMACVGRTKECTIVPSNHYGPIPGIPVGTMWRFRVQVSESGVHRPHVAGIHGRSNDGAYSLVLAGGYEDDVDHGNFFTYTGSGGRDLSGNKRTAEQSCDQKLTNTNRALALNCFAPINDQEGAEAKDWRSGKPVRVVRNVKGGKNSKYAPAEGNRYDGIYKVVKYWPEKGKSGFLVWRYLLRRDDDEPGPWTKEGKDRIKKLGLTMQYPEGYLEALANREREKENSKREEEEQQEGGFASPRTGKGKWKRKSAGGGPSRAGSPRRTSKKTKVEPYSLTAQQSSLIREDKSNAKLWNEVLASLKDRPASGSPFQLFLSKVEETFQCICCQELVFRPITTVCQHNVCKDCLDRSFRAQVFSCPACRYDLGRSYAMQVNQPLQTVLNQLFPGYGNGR

Kd [1]: 1300 nM
Kd [2]: 1420 nM
Kd [3]: 1520 nM
fold reduction of binding affinity against wild type [4]: 38 fold
Kd [5]: 27200 nM
B1: USP7 UBL1-2 (first two UBL domains of USP7) (domain or fragment)
chain: EAHLYMQVQIVAEDQFCGHQGNDMYDEEKVKYTVFKVLKNSSLAEFVQSLSQTMGFPQDQIRLWPMQARSNGTKRPAMLDNEADGNKTMIELSDNENPWTIFLETVDPELAASGATLPKFDKDHDVMLFLKMYDPKTRSLNYCGHIYTPISCKIRDLLPVMCDRAGFIQDTSLILYEEVKPNLTERIQDYDVSLDKALDELMDGDIIVFQKDDPENDNSELPTAKEYFRDLYH
modifications: not checked
